Data from patent US20150299268A1 (UNIVERSITY OF MARYLAND BALTIMORE, published 2015).

Key:
BaL-gp120-T162A = molecular target: T1, BaL-gp120-T162A (HIV-1 BaL); assay: capture ELISA
T1 construct: domain: gp120; glycan mutant

BaL-gp120-T455A = molecular target: T2, BaL-gp120-T455A (HIV-1 BaL); assay: capture ELISA
T2 construct: domain: gp120

BaL-gp120-P76A = molecular target: T3, BaL-gp120-P76A (HIV-1 BaL); assay: capture ELISA
T3 construct: domain: gp120

BaL-gp120-S158A = molecular target: T4, BaL-gp120-S158A (HIV-1 BaL); assay: capture ELISA
T4 construct: domain: gp120

BaL-gp120-P493A = molecular target: T5, BaL-gp120-P493A (HIV-1 BaL); assay: capture ELISA
T5 construct: domain: gp120

BaL-gp120-E31A = molecular target: T6, BaL-gp120-E31A (HIV-1 BaL); assay: capture ELISA
T6 construct: domain: gp120

BaL-gp120-G495A = molecular target: T7, BaL-gp120-G495A (HIV-1 BaL); assay: capture ELISA
T7 construct: domain: gp120

BaL-gp120-I491A = molecular target: T8, BaL-gp120-I491A (HIV-1 BaL); assay: capture ELISA
T8 construct: domain: gp120

BaL-gp120-I420R = molecular target: T9, BaL-gp120-I420R (HIV-1 BaL); assay: capture ELISA
T9 construct: domain: gp120; also called -1420R

BaL-gp120-H105A = molecular target: T10, BaL-gp120-H105A (HIV-1 BaL); assay: capture ELISA
T10 construct: domain: gp120

BaL-gp120-S200A = molecular target: T11, BaL-gp120-S200A (HIV-1 BaL); assay: capture ELISA
T11 construct: domain: gp120; also called 5200A

BaL-gp120-E32A = molecular target: T12, BaL-gp120-E32A (HIV-1 BaL); assay: capture ELISA
T12 construct: domain: gp120

BaL-gp120-V68A = molecular target: T13, BaL-gp120-V68A (HIV-1 BaL); assay: capture ELISA
T13 construct: domain: gp120

BaL-gp120-D57AD78A = molecular target: T14, BaL-gp120-D57AD78A (HIV-1 BaL); assay: capture ELISA
T14 construct: domain: gp120

BaL-gp120-Y40A = molecular target: T15, BaL-gp120-Y40A (HIV-1 BaL); assay: capture ELISA
T15 construct: domain: gp120

BaL-gp120-R476A = molecular target: T16, BaL-gp120-R476A (HIV-1 BaL); assay: capture ELISA
T16 construct: domain: gp120

BaL-gp120-S334A = molecular target: T17, BaL-gp120-S334A (HIV-1 BaL); assay: capture ELISA
T17 construct: domain: gp120; glycan mutant

BaL-gp120-K487AK490A = molecular target: T18, BaL-gp120-K487AK490A (HIV-1 BaL); assay: capture ELISA
T18 construct: domain: gp120

BaL-gp120-K46A = molecular target: T19, BaL-gp120-K46A (HIV-1 BaL); assay: capture ELISA
T19 construct: domain: gp120

BaL-gp120-D78A = molecular target: T20, BaL-gp120-D78A (HIV-1 BaL); assay: capture ELISA
T20 construct: domain: gp120

BaL-gp120 [1] = molecular target: T21, BaL-gp120 (HIV-1 BaL); assay: capture ELISA
T21 construct: domain: gp120; also called monomeric gp120; monomeric BaL gp120

BaL-gp120-D57AD62A = molecular target: T22, BaL-gp120-D57AD62A (HIV-1 BaL); assay: capture ELISA
T22 construct: domain: gp120

BaL-gp120-W69A = molecular target: T23, BaL-gp120-W69A (HIV-1 BaL); assay: capture ELISA
T23 construct: domain: gp120

BaL-gp120-F53A = molecular target: T24, BaL-gp120-F53A (HIV-1 BaL); assay: capture ELISA
T24 construct: domain: gp120

BaL-gp120-K500A = molecular target: T25, BaL-gp120-K500A (HIV-1 BaL); assay: capture ELISA
T25 construct: domain: gp120

BaL-gp120-E106AD107A = molecular target: T26, BaL-gp120-E106AD107A (HIV-1 BaL); assay: capture ELISA
T26 construct: domain: gp120

BaL-gp120-V496A = molecular target: T27, BaL-gp120-V496A (HIV-1 BaL); assay: capture ELISA
T27 construct: domain: gp120

BaL-gp120-V44A = molecular target: T28, BaL-gp120-V44A (HIV-1 BaL); assay: capture ELISA
T28 construct: domain: gp120

BaL-gp120-E47A = molecular target: T29, BaL-gp120-E47A (HIV-1 BaL); assay: capture ELISA
T29 construct: domain: gp120

BaL-gp120-K33A = molecular target: T30, BaL-gp120-K33A (HIV-1 BaL); assay: capture ELISA
T30 construct: domain: gp120

BaL-gp120-E492A = molecular target: T31, BaL-gp120-E492A (HIV-1 BaL); assay: capture ELISA
T31 construct: domain: gp120

BaL-gp120-V75A = molecular target: T32, BaL-gp120-V75A (HIV-1 BaL); assay: capture ELISA
T32 construct: domain: gp120

BaL-gp120-R476AR480A = molecular target: T33, BaL-gp120-R476AR480A (HIV-1 BaL); assay: capture ELISA
T33 construct: domain: gp120

BaL-gp120-R58AK59A = molecular target: T34, BaL-gp120-R58AK59A (HIV-1 BaL); assay: capture ELISA
T34 construct: domain: gp120

BaL-gp120-L494A = molecular target: T35, BaL-gp120-L494A (HIV-1 BaL); assay: capture ELISA
T35 construct: domain: gp120

BaL-gp120-Y39A = molecular target: T36, BaL-gp120-Y39A (HIV-1 BaL); assay: capture ELISA
T36 construct: domain: gp120

BaL-gp120-Y61A = molecular target: T37, BaL-gp120-Y61A (HIV-1 BaL); assay: capture ELISA
T37 construct: domain: gp120

BaL-gp120-W45A = molecular target: T38, BaL-gp120-W45A (HIV-1 BaL); assay: capture ELISA
T38 construct: domain: gp120

BaL-gp120-D57A = molecular target: T39, BaL-gp120-D57A (HIV-1 BaL); assay: capture ELISA
T39 construct: domain: gp120

gp120-b12-ScFV = assay: ELISA
BaL-gp120 [2] = molecular target: T21, BaL-gp120; assay: ELISA
FLSC R/T = molecular target: T40, FLSC R/T (HIV-1, UniProt P01730 26-208); assay: ELISA
T40 construct: not shown: linker of FLSC not described

gp120-VRC01-ScFV = assay: ELISA
gp120-JR48.1-ScFV = assay: ELISA
gp120-JR4-ScFV = assay: ELISA

B1: N60-B1.1 (antibody, V domains shown)
VH: QLQLQESGPGLVKPSGTLSLTCSVSGGSMNGRNIYWAWIRQTPGKGLEWIGSVDVSDEDAGRTFYKWPIKSRASISADTSKNQFSLKLSSVTVADTGVYYCARETLYYVGNGYYYPLDVFYYNYYMDVWGKGTTVSVSS
VL: not shown
notes: also called bnAb N60-B1.1
- % Binding (BaL-gp120-T162A): 100%
- % Binding (BaL-gp120-T455A): 73%
- % Binding (BaL-gp120-P76A): 102%
- % Binding (BaL-gp120-S158A): 3%
- % Binding (BaL-gp120-P493A): 92%
- % Binding (BaL-gp120-E31A): 103%
- % Binding (BaL-gp120-G495A): 106%
- % Binding (BaL-gp120-I491A): 85%
- % Binding (BaL-gp120-I420R): 22%
- % Binding (BaL-gp120-H105A): 88%
- % Binding (BaL-gp120-S200A): 22%
- % Binding (BaL-gp120-E32A): 108%
- % Binding (BaL-gp120-V68A): 68%
- % Binding (BaL-gp120-D57AD78A): 103%
- % Binding (BaL-gp120-Y40A): 139%
- % Binding (BaL-gp120-R476A): 57%
- % Binding (BaL-gp120-S334A): 91%
- % Binding (BaL-gp120-K487AK490A): 31%
- % Binding (BaL-gp120-K46A): 50%
- % Binding (BaL-gp120-D78A): 108%
- % Binding (BaL-gp120 [1]): 100%
- % Binding (BaL-gp120-D57AD62A): 76%
- % Binding (BaL-gp120-W69A): 84%
- % Binding (BaL-gp120-F53A): 90%
- % Binding (BaL-gp120-K500A): 94%
- % Binding (BaL-gp120-E106AD107A): 36%
- % Binding (BaL-gp120-V496A): 107%
- % Binding (BaL-gp120-V44A): 114%
- % Binding (BaL-gp120-E47A): 78%
- % Binding (BaL-gp120-K33A): 76%
- % Binding (BaL-gp120-E492A): 113%
- % Binding (BaL-gp120-V75A): 104%
- % Binding (BaL-gp120-R476AR480A): 5%
- % Binding (BaL-gp120-R58AK59A): 92%
- % Binding (BaL-gp120-L494A): 99%
- % Binding (BaL-gp120-Y39A): 121%
- % Binding (BaL-gp120-Y61A): 92%
- % Binding (BaL-gp120-W45A): 84%
- % Binding (BaL-gp120-D57A): 98%
- Fold of Ab needed for ELISA binding OD equal to half max on gp120 (gp120-b12-ScFV): 0.01 fold
- Fold of Ab needed for ELISA binding OD equal to half max on gp120 (BaL-gp120 [2]): 1 fold
- Fold of Ab needed for ELISA binding OD equal to half max on gp120 (FLSC R/T): 16.4 fold
- Fold of Ab needed for ELISA binding OD equal to half max on gp120 (gp120-VRC01-ScFV): 0.03 fold
- Fold of Ab needed for ELISA binding OD equal to half max on gp120 (gp120-JR48.1-ScFV): 0.14 fold
- Fold of Ab needed for ELISA binding OD equal to half max on gp120 (gp120-JR4-ScFV): 0.04 fold
